Patent EP1233271A1 (Huber, Lukas, dated 2002)

Molecular target: T1, GST (UniProt P08515 1-218 = GST)
T1 construct: Negative control of the pull-down; also called GST alone
Assay: GST pull-down on GSH-sepharose, immunoblot

T1 sequence (P08515 whole entry): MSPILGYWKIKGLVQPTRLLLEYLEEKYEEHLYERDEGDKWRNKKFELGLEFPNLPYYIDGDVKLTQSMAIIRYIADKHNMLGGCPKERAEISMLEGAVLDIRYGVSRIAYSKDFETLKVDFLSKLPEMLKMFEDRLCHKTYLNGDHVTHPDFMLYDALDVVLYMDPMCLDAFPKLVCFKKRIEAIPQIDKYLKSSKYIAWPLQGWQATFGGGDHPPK

binding result: no binding
B1: His6-T7-tagged MP1 (other, UniProt O88653 1-124, looked up)
chain: MADDLKRFLYKKLPSVEGLHAIVVSDRDGVPVIKVANDSAPEHALRPGFLSTFALATDQGSKLGLSKNKSIICYYNTYQVVQFNRLPLVVSFIASSSANTGLIVSLEKELAPLFEELIKVVEVS
notes: Recombinant, in bacterial lysate; also called His6-T7-MP1; not shown: N-terminal His6-T7 tag from vector pET28 (Novagen)
